The text below walks through data of patent publication US10456446B2, “Use of human small leucine zipper protein in osteogenesis procedure” (Korea University Research and Business Foundation, priority 2013, dated 2019).

The assay addresses T1, PPARγ2 (Homo sapiens, UniProt P37231).
T1 construct: expressed in transfected cells; host or cells: 293T
T1 sequence (P37231 1-505): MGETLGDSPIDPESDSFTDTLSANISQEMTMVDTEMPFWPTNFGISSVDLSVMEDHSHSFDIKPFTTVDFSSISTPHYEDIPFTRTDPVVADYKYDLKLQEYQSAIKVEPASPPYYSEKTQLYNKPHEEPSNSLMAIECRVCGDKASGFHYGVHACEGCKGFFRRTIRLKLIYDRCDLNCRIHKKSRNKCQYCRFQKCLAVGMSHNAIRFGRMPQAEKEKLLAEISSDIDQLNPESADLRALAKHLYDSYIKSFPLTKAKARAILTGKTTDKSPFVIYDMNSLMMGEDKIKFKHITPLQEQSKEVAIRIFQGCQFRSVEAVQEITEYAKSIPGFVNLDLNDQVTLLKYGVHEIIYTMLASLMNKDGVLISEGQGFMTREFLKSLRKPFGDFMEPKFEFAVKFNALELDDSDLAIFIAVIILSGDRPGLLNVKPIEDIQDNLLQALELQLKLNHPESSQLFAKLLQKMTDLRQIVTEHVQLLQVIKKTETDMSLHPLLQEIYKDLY
Put plainly: PPARγ2 transcriptional activity, FABP4-Luc luciferase reporter in transfected 293T cells. The format is cell-based. The note with it: for PPARγ2 transcriptional activity (relative luciferase activity): sLZIP or deletion mutants 0.1 μg, RZD treated. On the procedure: C3H10T1/2 and 293T cells were plated in a 12-well culture dish at a density of 2×10^5 cells/well and incubated for 24 hours. Then, according to instructions of the manufacturer, the cells were transfected with a 0.2 μg of reporter genes and 0.1 to 0.5 μg of a laboratory plasmid using Lipofectamine 2000 or Genefectine. After 24 hours, the cells were cultured in a serum-free DMEM with or without 10 nM of rosiglitazone. siRNAs were prepared using sLZIP and HDAC target sequences (Table 1). For an RNA interference experiment, according to instructions of the manufacturer, the cells were transfected with scrambled control group RNA and appropriate siRNAs using Lipofectamine 2000. Human MSC and C3H10T/1/2 cells were infected with an adenovirus vector containing cDNA of human sLZIP or an empty vector. The infected medium was exchanged with a fresh medium after two hours.
Appropriately transfected cells were washed with cold PBS twice, and a reporter lysis buffer (Promega) was used and lysed in a culture dish. Luciferase analysis was performed using a luciferase analysis system (Promega Corporation, Madison, Wis.). A luciferase activity was recorded in Luminometer 20/20^n (Turner BioSystems, Sunnyvale, Calif.) according to instructions of the manufacturer. The luciferase activity was normalized to a β-galactosidase activity. For β-galactosidase analysis, CMV-β-galactosidase was transfected with luciferase reporter genes. All pieces of data were represented as mean±standard deviation of the results from at least three independent experiments.
In order to examine an effect of sLZIP on the transcriptional activity of PPARγ2, 293T cells were temporarily transfected with PPARγ2 (0.5 μg), β-galactosidase (0.1 μg), FABP4-Luc reporter genes (0.2 μg) and sLZIP at different contents (0.1 to 0.5 μg). After the transfection, the cells were stimulated with or without 10 nM of rosiglitazone (RZD) (FIG. 1A), pioglitazone (PZD) (FIG. 1B), and troglitazone (TZD) (FIG. 1C). A relative luciferase activity was analyzed with or without cell ligand treatment 24 hours after transfection. Also, the 293T cells were transiently transfected with si-sLZIP at different contents (50 and 100 nM), and the cells were treated or not treated with RZD (FIG. 1D). FABP4-Luc stable C3H10T1/2 cells were infected with a sLZIP-expressing adenovirus, and then differentiated into adipocytes for 4 days (FIG. 1E). A luciferase activity was normalized to a β-galactosidase activity and represented as a relative activity (fold change). All experiments were repeated three times, and bars in the graph represent mean±standard deviation. *, P<0.05; **, P<0.01
For this purpose, 293T cells were transiently transfected with PPARγ2 (0.5 μg), β-galactosidase (0.1 μg), FABP4-Luc reporter genes (0.2 μg) and sLZIP (0.1 μg). After the transfection, the cells were stimulated with or without 10 nM of RZD and 10 nM of TSA (FIG. 4A). A promoter activity was measured according to luciferase analysis. In the 293T cells, FABP4-Luc reporter genes, sLZIP, PPAR, β-galactosidase, and 100 nM of si-RNAs and HDAC1, 2, 3 and 8 for a control group were expressed. After the transfection, the cells were stimulated with or without 10 nM of RZD, and a promoter activity was measured (FIG. 4B). 293T cells were temporarily transfected with FABP4-Luc reporter genes, PPARγ2, β-galactosidase, HDAC3 (0.5 μg) and sLZIP (0.1 μg). After the transfection, the cells were stimulated with or without 10 nM of RZD, and luciferase analysis was performed (FIG. 4C). A luciferase activity was normalized to a β-galactosidase activity and represented as a relative intensity (fold change). All experiments were repeated three times, and bars in the graph represent mean±standard deviation. GFP-sLZIP expression constructs were expressed in C3H10T1/2 cells, rabbit anti-HDAC3 antibodies and Texas Red-labeled anti-rabbit antibodies were used and analysis was performed under a fluorescence microscope. The nucleus was stained with DAPI (FIG. 4D). […]
In general terms: In a reporter assay the amount or activity of a reporter protein is the signal.

B1: sLZIP: human small leucine-zipper protein, isoform of LZIP, 354 amino acids, no transmembrane domain, GenBank FJ263669, SEQ ID NO: 1 (protein, listed as Homo sapiens)
chain: MELELDAGDQDLLAFLLEESGDLGTAPDEAVRAPLDWALPLSEVPSDWEVDDLLCSLLSPPASLNILSSSNPCLVHHDHTYSLPRETVSMDLESESCRKEGTQMTPQHMEELAEQEIARLVLTDEEKSLLEKEGLILPETLPLTKTEEQILKRVRRKIRNKRSAQESRRKKKVYVGGLESRVLKYTAQNMELQNKVQLLEEQNLSLLDQLRKLQAMVIEISNKTSSSSMYSSDTRGSLPAEHGVLSRQLRALPSEDPYQLELPALQSEVPKDSTHQWLDGSDCVLQAPGNTSCLLHYMPQAPSAEPPLEWPFPDLFSEPLCRGPILPLQANLTRKGGWLPTGSPSVILQDRYSG
Consider B1, for which the “PPARγ2 transcriptional activity (relative luciferase activity)” value was “still inhibited the PPARγ2 transcriptional activity”. In addition, where the note is “sLZIP 0.1 μg together with HDAC3 0.5 μg, with or without 10 nM RZD”, the “sLZIP-mediated PPARγ2 transcriptional activity” value is on record as “significantly down-regulated”. The “transcriptional activity of PPARγ2 (relative luciferase activity)” value (sLZIP 0.1 μg, cells treated with 10 nM TSA) was “did not decrease the transcriptional activity of PPARγ2”. Where the note is “sLZIP 0.1 μg, no TSA”, the “transcriptional activity of PPARγ2 (relative luciferase activity)” value is recorded as “inhibits the transcriptional activity of PPARγ2”. Also, the “transcriptional activity of PPARγ2 (relative luciferase activity)” value (sLZIP 0.1 to 0.5 μg, with or without 10 nM RZD, PZD or TZD, 24 hours) is “inhibits the transcriptional activity of PPARγ2 in a concentration-dependent manner”.

B2: N domains of sLZIP: N-terminal deletion mutant of sLZIP (1-228) (protein)
chain: MELELDAGDQDLLAFLLEESGDLGTAPDEAVRAPLDWALPLSEVPSDWEVDDLLCSLLSPPASLNILSSSNPCLVHHDHTYSLPRETVSMDLESESCRKEGTQMTPQHMEELAEQEIARLVLTDEEKSLLEKEGLILPETLPLTKTEEQILKRVRRKIRNKRSAQESRRKKKVYVGGLESRVLKYTAQNMELQNKVQLLEEQNLSLLDQLRKLQAMVIEISNKTSSSS
modifications: left off: a dimerising Fc or GST
For B2, the “PPARγ2 transcriptional activity (relative luciferase activity)” value is recorded as “inhibited”.
